Reference: article PMC12340889

Assays:
[1] = tested on: DriD(G18K-A20K) (Caulobacter crescentus); test: fluorescence polarization; conditions: FP: 25 mM Tris-HCl pH 7.5, 150 mM NaCl, 2.5% glycerol, 100 uM ssDNA, temperature not stated; cryo-EM: 20 mM Tris-HCl pH 8, 5 mM MgCl2, 100 mM NaCl, 1 mM bME …
[2] = tested on: DriD WT (Caulobacter crescentus); test: fluorescence polarization; conditions: FP: 25 mM Tris-HCl pH 7.5, 150 mM NaCl, 2.5% glycerol, 100 uM ssDNA, temperature not stated; cryo-EM: 20 mM Tris-HCl pH 8, 5 mM MgCl2, 100 mM NaCl, 1 mM bME …
[3] = target: C. crescentus DriD (wild type) (C. crescentus); test: fluorescence polarisation; DriD (WT or mutant) first bound to fluoresceinated target DNA with 100 μM ssDNA, then increasing αCTD titrated in; 25 mM Tris-HCl pH 7.5, 150 mM NaCl, 2.5 % glycerol; apparent Kd; three technical replicates

Substance	Kd [1] [nM]	Kd [2] [nM]	Kd [3] [nM]
ATACGACAGTAACTGTCGTAT (double strand) [F-DriD target DNA]	9.2	7.1	–
C. crescentus α subunit CTD (α residues 161–248) (domain or fragment)	–	–	30000
